According to publication PMC2148190 (The Journal of Cell Biology, 1999):

B1: His-tagged Bid (recombinant wild-type Bid) (natural protein)
chain: MDSEVSNGSGLGAEHITDLLVFGFLQSSGCTRQELEVLGRELPVQAYWEADLEDELQTDGSQASRSFNQGRIEPDSESQEEIIHNIARHLAQIGDEMDHNIQPTLVRQLAAQFMNGSLSEEDKRNCLAKALDEVKTAFPRDMENDKAMLIMTMLLAKKVASHAPSLLRDVFHTTVNFINQNLFSYVRNLVRNEMD
B2: BidmIII-3 (G94→ A) (natural protein)
chain: MDSEVSNGSGLGAEHITDLLVFGFLQSSGCTRQELEVLGRELPVQAYWEADLEDELQTDGSQASRSFNQGRIEPDSESQEEIIHNIARHLAQIADEMDHNIQPTLVRQLAAQFMNGSLSEEDKRNCLAKALDEVKTAFPRDMENDKAMLIMTMLLAKKVASHAPSLLRDVFHTTVNFINQNLFSYVRNLVRNEMD

What was measured:
[1] = biological target: His-tagged human Bcl-xL lacking 24 amino acids at the COOH terminus (human, UniProt Q07817-1 1-209); test: co-IP
[2] = biological target: Human Bcl-2 lacking 34 amino acids at the COOH terminus (human, UniProt P10415 1-205); test: co-IP
Human Bcl-2 lacking 34 amino acids at the COOH terminus, sequence (P10415 1-205): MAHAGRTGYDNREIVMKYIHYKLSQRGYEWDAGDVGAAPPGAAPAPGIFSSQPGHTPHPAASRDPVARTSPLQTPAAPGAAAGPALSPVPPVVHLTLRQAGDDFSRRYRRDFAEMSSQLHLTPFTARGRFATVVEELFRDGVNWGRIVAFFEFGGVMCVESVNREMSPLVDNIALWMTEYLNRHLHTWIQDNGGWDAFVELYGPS

His-tagged human Bcl-xL lacking 24 amino acids at the COOH terminus, sequence (Q07817 1-209): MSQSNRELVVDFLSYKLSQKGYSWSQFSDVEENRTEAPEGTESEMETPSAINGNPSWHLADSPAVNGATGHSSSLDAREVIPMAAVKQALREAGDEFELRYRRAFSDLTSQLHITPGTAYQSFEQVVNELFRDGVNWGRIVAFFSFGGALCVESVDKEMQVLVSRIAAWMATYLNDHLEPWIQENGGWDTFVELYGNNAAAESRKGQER

Binder | binding result [1] | binding result [2]
B1 | binds | binds
B2 | binds | binds
